Laboratory results reported in IntAct's records for PubMed 17314515.

B1: Protein Vpr (Human immunodeficiency virus type 1 group M subtype B (isolate BRU/LAI)), P05928 (parent)
chain: MEQAPEDQGPQREPHNEWTLELLEELKNEAVRHFPRIWLHGLGQHIYETYGDTWAGVEAIIRILQQLLFIHFRIGCRHSRIGVTQQRRARNGASRS
B2: Protein Vpx (Simian immunodeficiency virus (isolate PBj14/BCL-3)), P19508 (parent)
chain: MSDPRERIPPGNSGEETIGEAFDWLDRTVEEINRAAVNHLPRELIFQVWRRSWEYWHDEMGMSVSYTKYRYLCLIQKAMFMHCKKGCRCLGGEHGAGGWRPGPPPPPPPGLA

Variants of: B1
Conditions: with DCAF1, Q9Y4B6-3
Target sequence in this assay (Q9Y4B6 other isoform, or with tags, fused parts or gaps): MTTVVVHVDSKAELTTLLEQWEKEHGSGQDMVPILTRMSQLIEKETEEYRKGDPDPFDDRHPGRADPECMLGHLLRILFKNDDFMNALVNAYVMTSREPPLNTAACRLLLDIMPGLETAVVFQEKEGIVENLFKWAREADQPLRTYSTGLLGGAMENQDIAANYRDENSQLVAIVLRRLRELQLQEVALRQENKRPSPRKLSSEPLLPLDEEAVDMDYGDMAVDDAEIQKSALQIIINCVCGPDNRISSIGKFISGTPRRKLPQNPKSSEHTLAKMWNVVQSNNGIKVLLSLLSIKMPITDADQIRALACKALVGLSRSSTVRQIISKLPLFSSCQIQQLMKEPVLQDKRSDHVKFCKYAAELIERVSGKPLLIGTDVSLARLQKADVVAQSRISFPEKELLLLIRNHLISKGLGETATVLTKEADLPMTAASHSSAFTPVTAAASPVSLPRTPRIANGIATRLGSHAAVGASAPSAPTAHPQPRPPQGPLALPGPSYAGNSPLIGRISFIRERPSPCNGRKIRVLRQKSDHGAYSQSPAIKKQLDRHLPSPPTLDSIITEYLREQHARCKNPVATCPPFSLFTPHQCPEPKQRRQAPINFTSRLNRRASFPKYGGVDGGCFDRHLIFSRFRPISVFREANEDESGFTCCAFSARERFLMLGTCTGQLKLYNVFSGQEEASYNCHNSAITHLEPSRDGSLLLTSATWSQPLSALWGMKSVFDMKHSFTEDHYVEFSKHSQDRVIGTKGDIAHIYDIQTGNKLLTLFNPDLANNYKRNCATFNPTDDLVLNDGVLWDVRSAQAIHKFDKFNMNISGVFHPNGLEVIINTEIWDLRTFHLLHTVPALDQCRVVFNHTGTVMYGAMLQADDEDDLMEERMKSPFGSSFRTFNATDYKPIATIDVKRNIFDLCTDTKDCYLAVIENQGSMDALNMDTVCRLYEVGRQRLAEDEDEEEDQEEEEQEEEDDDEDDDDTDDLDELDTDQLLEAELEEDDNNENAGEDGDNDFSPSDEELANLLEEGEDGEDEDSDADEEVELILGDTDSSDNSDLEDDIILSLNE
For Q65R, the “effect of a mutation on the interaction” value was “disrupting interaction”. Q65A was tested, and the “effect of a mutation on the interaction” value was “disrupting interaction”.

Variants of: B2
Conditions: with DCAF1, Q9Y4B6-3
Target sequence in this assay (Q9Y4B6 other isoform, or with tags, fused parts or gaps): as above
Q76R was tested, and the “effect of a mutation on the interaction” value was “disrupting interaction”.
